Tests used:
Assay in all cases: SEC; Size-exclusion chromatography of the purified His6-tagged recombinant proteins. Column and buffer are not told for these proteins. Dimerization was not detected consistently under the authors' conditions.
[1] = molecular target: Mase04140 (PL17 family alginate lyase, subfamily 2, Alteromonas macleodii) (Alteromonas macleodii)
[2] = molecular target: Pedsa1196 (PL17 family alginate lyase, subfamily 2, Pedobacter saltans) (Pedobacter saltans)
[3] = molecular target: Valg4460 (PL17 family polysaccharide lyase, subfamily 2, Vibrio alginolyticus) (Vibrio alginolyticus)

Question: Which stoichiometry N [1] does the source give for “Mase04140 (PL17 family alginate lyase, subfamily 2, Alteromonas macleodii) (enzyme)” here?
Answer: The stoichiometry N was 2.

Question: “Pedsa1196 (PL17 family alginate lyase, subfamily 2, Pedobacter saltans) (enzyme)” was tested. Which stoichiometry N [2] did it give?
Answer: The stoichiometry N was 2.

Question: With “Valg4460 (PL17 family polysaccharide lyase, subfamily 2, Vibrio alginolyticus) (enzyme)” as the substance, how does the stoichiometry N [3] read?
Answer: The stoichiometry N was 2.

Reference: publication PMC5966431
